Assay results: patent US20260167699A1 (Chugai, published 2026)
Positions count from the first letter of the chain named.

T1: FcγRIIa(H) extracellular domain, C-terminal His tag (human, UniProt P12318 34-217)
T1 construct: extracellular domain; Allotype H131; also called 2aH
T1 sequence: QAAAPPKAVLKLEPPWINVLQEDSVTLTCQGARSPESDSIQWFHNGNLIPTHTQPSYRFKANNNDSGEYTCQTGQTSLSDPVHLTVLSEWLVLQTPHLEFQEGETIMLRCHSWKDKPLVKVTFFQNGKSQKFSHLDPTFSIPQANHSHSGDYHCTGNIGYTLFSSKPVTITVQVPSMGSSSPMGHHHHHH

T2: FcγRIIa(R) extracellular domain, C-terminal His tag (human, UniProt P12318 34-217)
T2 construct: extracellular domain; Allotype R131; also called 2aR
T2 sequence: T1 sequence with H134R

T3: FcγRIIb extracellular domain, C-terminal His tag (human, UniProt P31994 43-217)
T3 construct: extracellular domain; also called 2b
T3 sequence: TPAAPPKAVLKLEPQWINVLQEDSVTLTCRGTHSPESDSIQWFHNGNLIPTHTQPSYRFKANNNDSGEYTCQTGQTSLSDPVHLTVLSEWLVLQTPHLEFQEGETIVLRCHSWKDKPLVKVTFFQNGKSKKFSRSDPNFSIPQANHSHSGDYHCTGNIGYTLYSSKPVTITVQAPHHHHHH

B1: GpH7-A5/GpH7-B3 variant A330_15Y/GpL16-k0 (antibody, human IgG1, kappa)
heavy 1: not shown
heavy 2: not shown
light: DIVMTQSPLSLPVTPGEPASISCQASESLVHSNRNTYLHWYLQKPGQSPQLLIYKVSNRFSGVPDRFSGSGSGTDFTLKISRVEAEDVGVYYCSQNTHVPPTFGQGTKVEIERTVAAPSVFIFPPSDEQLKSGTASVVCLLNNFYPREAKVQWKVDNALQSGNSQESVTEQDSKDSTYSLSSTLTLSKADYEKHKVYACEVTHQGLSSPVTKSFNRGEC
notes: He Ab: anti-glypican 3 IgG1 heterodimer, only the GpH7-B3 chain mutated; position in EU numbering; also called He Ab
B2: GpH7-A5/GpH7-B3 variant A330_16H/GpL16-k0 (antibody, human IgG1, kappa)
heavy 1: not shown
heavy 2: not shown
light: B1 light
notes: as for B1
B3: GpH7-A5/GpH7-B3 variant A330_18N/GpL16-k0 (antibody, human IgG1, kappa)
heavy 1: not shown
heavy 2: not shown
light: B1 light
notes: as for B1
B4: GpH7-A5/GpH7-B3 variant A330_19Q/GpL16-k0 (antibody, human IgG1, kappa)
heavy 1: not shown
heavy 2: not shown
light: B1 light
notes: as for B1
B5: GpH7-A5/GpH7-B3 variant A330_20W/GpL16-k0 (antibody, human IgG1, kappa)
heavy 1: not shown
heavy 2: not shown
light: B1 light
notes: as for B1
B6: GpH7-A5/GpH7-B3 variant E333_12R/GpL16-k0 (antibody, human IgG1, kappa)
heavy 1: not shown
heavy 2: not shown
light: B1 light
notes: as for B1
B7: GpH7-A5/GpH7-B3 variant E333_18N/GpL16-k0 (antibody, human IgG1, kappa)
heavy 1: not shown
heavy 2: not shown
light: B1 light
notes: as for B1
B8: GpH7-A5/GpH7-B3 variant I332_02A/GpL16-k0 (antibody, human IgG1, kappa)
heavy 1: not shown
heavy 2: not shown
light: B1 light
notes: as for B1
B9: GpH7-A5/GpH7-B3 variant I332_03V/GpL16-k0 (antibody, human IgG1, kappa)
heavy 1: not shown
heavy 2: not shown
light: B1 light
notes: as for B1
B10: GpH7-A5/GpH7-B3 variant I332_04F/GpL16-k0 (antibody, human IgG1, kappa)
heavy 1: not shown
heavy 2: not shown
light: B1 light
notes: as for B1
B11: GpH7-A5/GpH7-B3 variant I332_06M/GpL16-k0 (antibody, human IgG1, kappa)
heavy 1: not shown
heavy 2: not shown
light: B1 light
notes: as for B1
B12: GpH7-A5/GpH7-B3 variant I332_10E/GpL16-k0 (antibody, human IgG1, kappa)
heavy 1: not shown
heavy 2: not shown
light: B1 light
notes: as for B1
B13: GpH7-A5/GpH7-B3 variant I332_13S/GpL16-k0 (antibody, human IgG1, kappa)
heavy 1: not shown
heavy 2: not shown
light: B1 light
notes: as for B1
B14: GpH7-A5/GpH7-B3 variant I332_14T/GpL16-k0 (antibody, human IgG1, kappa)
heavy 1: not shown
heavy 2: not shown
light: B1 light
notes: as for B1
B15: GpH7-A5/GpH7-B3 variant I332_16H/GpL16-k0 (antibody, human IgG1, kappa)
heavy 1: not shown
heavy 2: not shown
light: B1 light
notes: as for B1

Biological target: T1, FcγRIIa(H) extracellular domain, …
Assay: SPR (Biacore); binding relative to GpH7-A5/GpH7-B3/GpL16-k0 x100;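 further: antibodies captured on a chip surface, soluble FcγR flowed over in HBS-EP+ running buffer at 25 °C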

Row | Binder | He/Con 2aH [%]
1 | B1 | 106
2 | B2 | 110
3 | B3 | 88.3
4 | B4 | 110
5 | B5 | 93.8
6 | B6 | 110
7 | B7 | 110
8 | B8 | 115
9 | B9 | 108
10 | B10 | 108
11 | B11 | 114
12 | B12 | 112
13 | B13 | 113
14 | B14 | 119
15 | B15 | 113

Biological target: T2, FcγRIIa(R) extracellular domain, …
Assay: as above

Row | Binder | He/Con 2aR [%]
16 | B1 | 114
17 | B2 | 111
18 | B3 | 91
19 | B4 | 117
20 | B5 | 97.6
21 | B6 | 127
22 | B7 | 118
23 | B8 | 96.9
24 | B9 | 87
25 | B10 | 104
26 | B11 | 108
27 | B12 | 113
28 | B13 | 97.9
29 | B14 | 104
30 | B15 | 97.6

Biological target: T4, FcγRIIIa extracellular domain, C-terminal His tag (human, UniProt P08637 17-208)
T4 construct: extracellular domain; also called 3a
Assay: as above

T4 sequence (P08637 other isoform, or with tags, fused parts or gaps): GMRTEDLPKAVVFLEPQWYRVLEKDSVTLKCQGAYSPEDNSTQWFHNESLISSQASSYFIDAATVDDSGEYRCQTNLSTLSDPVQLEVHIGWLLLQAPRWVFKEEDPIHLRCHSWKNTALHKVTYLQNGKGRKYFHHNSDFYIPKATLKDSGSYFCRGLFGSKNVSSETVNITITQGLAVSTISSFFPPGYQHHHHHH

Row | Binder | He/Con 3a [%]
31 | B1 | 122
32 | B2 | 102
33 | B3 | 67.3
34 | B4 | 86.3
35 | B5 | 102
36 | B6 | 92.2
37 | B7 | 76.2
38 | B8 | 103
39 | B9 | 85.2
40 | B10 | 89.3
41 | B11 | 92.5
42 | B12 | 213
43 | B13 | 95.6
44 | B14 | 110
45 | B15 | 89

Biological target: T5, FcγRIa extracellular domain, C-terminal His tag (human, UniProt P12314 16-292)
T5 construct: extracellular domain; also called 1a
Assay: as above

T5 sequence (P12314 other isoform, or with tags, fused parts or gaps): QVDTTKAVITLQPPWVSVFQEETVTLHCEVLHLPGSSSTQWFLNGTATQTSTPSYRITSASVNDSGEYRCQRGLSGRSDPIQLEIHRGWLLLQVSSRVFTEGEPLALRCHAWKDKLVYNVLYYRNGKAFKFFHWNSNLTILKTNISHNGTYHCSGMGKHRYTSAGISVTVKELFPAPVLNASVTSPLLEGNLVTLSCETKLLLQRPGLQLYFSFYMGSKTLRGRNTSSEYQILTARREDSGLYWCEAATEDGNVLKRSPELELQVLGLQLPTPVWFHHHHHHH

Row | Binder | He/Con 1a [%]
46 | B1 | 108
47 | B2 | 109
48 | B3 | 110
49 | B4 | 109
50 | B5 | 111
51 | B6 | 96.7
52 | B7 | 91.4
53 | B8 | 100
54 | B9 | 100
55 | B10 | 106
56 | B11 | 105
57 | B12 | 109
58 | B13 | 97.3
59 | B14 | 104
60 | B15 | 100

Biological target: T3, FcγRIIb extracellular domain, …
Assay: as above

Row | Binder | He/Con 2b [%]
61 | B1 | 107
62 | B2 | 99
63 | B3 | 71.9
64 | B4 | 103
65 | B5 | 86
66 | B6 | 104
67 | B7 | 98.2
68 | B8 | 114
69 | B9 | 89.5
70 | B10 | 115
71 | B11 | 116
72 | B12 | 158
73 | B13 | 109
74 | B14 | 118
75 | B15 | 103
